The source of these data is patent publication US20220273679A1, “METHODS AND COMPOSITIONS FOR TREATING AND PREVENTING DAMAGE TO SKIN” (New York Society for the Relief of the Ruptured and …, priority 2019, published 2022).

For assay [1], the system named is LC-Ad17 mice. The assay can be described thus: UVR-induced keratinocyte apoptosis and monocyte numbers in ears of LC-Ad17 mice. The format is in vivo, mouse. To be noted: applied on ears prior to UVR, 24 hours. The procedure:
FIGS. 5A-5H. LC-derived ADAM17 limits UVR-induced keratinocyte apoptosis and skin injury. (5A-5D) Graphs showing WT and LC-Ad17 mice were treated with UVR and analyzed at indicated time points. (5A) Graph showing activated caspase-3+ keratinocytes (n=3-5 mice). […] (5C) Graph showing epidermal thickness (n=3-4 mice). (5D) Graph showing quantification of epidermal permeability (n=3-5 mice). (5E,5F) Vehicle or HB-EGF was applied on the ears prior to UVR exposure (n=3-4 mice). (5E) Graph showing activated caspase-3+ keratinocytes. (5F) Graphs showing absolute (left) and normalized (right) monocyte numbers. (5G,5H) Effect of LC Adam17 deletion or ADAM17 blockade on keratinocyte survival in vitro. Murine keratinocytes with LCs from indicated mice (5G) and human keratinocytes with control-IgG or anti-ADAM17-treated LCs (5H) were exposed to UVR and examined at 24 hours (n=3 mice or 4 human donors). Data are from 3 (5E-5G), 4 (5A), 2 (5H), 5 (5B), and 1 (5C,5D) independent experiments. Bars represent means (5A,5B,5D-H) or medians (5C).

Assay [2] deals with MRL-Faslpr mice. Briefly: Multi-day UVR lesion development in MRL-Faslpr SLE model mice with topical treatment. The class given is in vivo, mouse. On the procedure: FIGS. 8A-8C. Topical EGFR ligand reduces photosensitivity. (8A) Experimental scheme for (B-C) (n=4 mice). MRL-Faslpr mice ears and back skin were topically treated with HB-EGF for 2 days before and on the first day of UVR exposure and examined 24 hours after the final exposure. Ears were treated with Control plus vehicle, UVR plus vehicle, UVR+ HB-EGF and MRL-MpJ UVR+ vehicle. The MRL-MpJ ear represents a non-SLE control. (8C) Graph of ear histopathology scores. (8C) Graph of absolute monocyte numbers. Data are from 3 independent experiments. Bars represent means.
FIGS. 18A-18B. EGFR ligand application reduces the severity of UVR-induced skin lesions and lymph node B cell responses in SLE model mice. Mice were treated with HB-EGF (n=4 mice). Lesional areas are seen in magnified images of back lesions (not shown). Neutrophil-dominant infiltrate and ulceration are seen in H&E images of ear skin (not shown). (18A, 18B) Germinal center B cell (18A) and plasma cell (18B) numbers in skin draining lymph nodes (auricular and inguinal) normalized to mice treated with UVR+ vehicle. Each symbol represents either inguinal or auricular lymph nodes from multiple mice. Data from 2 independent experiments. Bars represent means.
The remaining hair on the back skin of the mice was removed using Nair and photographs were taken. The total back area and lesional area (skin affected by erythema, scaliness, crustiness, or epidermal erosion) was measured by a blinded observer using ImageJ software and skin lesions were quantified as percent of back area.
Skin histopathology scoring: A blinded expert dermatopathologist scored H&E stained sections based on dermal inflammation (0-3).

Assay [3] has as its system Langerin-DTA mice. Briefly: UVR-induced keratinocyte apoptosis and monocyte accumulation in ears of Langerin-DTA mice. To be noted: 2 ug per ear 15 minutes prior to UVR, 24 hours after UVR.
Procedure: (3C,3D) Mouse ears were treated with vehicle or HB-EGF prior to UVR and examined 24 hours after UVR (n=3-4 mice). (3C) Graph of activated caspase-3+ keratinocytes. (3D) Graph of absolute (left) and normalized (right) monocyte numbers. […] Bars represent means. Error bars depict standard deviations.
For indicated 24 hour experiments, HB-EGF (2 ug; R&D Systems) dissolved in dimethyl sulfoxide (DMSO) was applied to each ear 15 minutes prior to UVR exposure.
For immunofluorescence staining of murine skin, frozen unfixed mouse skin was sectioned, fixed with cold acetone for 10 minutes, and stained as indicated (15). Epidermal activated caspase-3+ cells per high powered field (40× magnification) were quantified by a blinded observer using ImageJ software (NIH) and classified as activated caspase-3+ keratinocytes (Langerin− and CD3−), LCs (Langerin+), or T cells (CD3+).
Assay [4] deals with ADAM17. To be noted: mouse embryonic fibroblasts; cited from earlier work.
The mark [5] stands for this setting: MRL-Faslpr mice, topical, multi-day UVR.
[6] abbreviates: MRL/lpr lupus model, topical application.

B1: heparin-binding EGF-like growth factor (protein)
chain: DLQEADLDLLRVTLSSKPQALATPNKEEHGKRKKKGKGLGKKRDPCLRKYKDFCIHGECKYVKELRAPSCICHPGYHGERCHGLSL
On to B1, for which, in assay [1], the “UVR-induced skin inflammation (monocyte numbers)” value is “dampened” and the “increased UVR-induced keratinocyte apoptosis” value was “dampened”. The “severity of UVR-induced skin lesions” value in assay [2] (MRL-Faslpr mice, topical on ears and back for three consecutive days, 6 days UVR) is recorded as “reduced the severity”. Also, in assay [2] (setting [5]), the “germinal center B cells in skin-draining lymph nodes” value was “reduced” and the “plasma cells in skin-draining lymph nodes” value is recorded as “reduced”. For the same molecule, the monocyte accumulation result in assay [2] (MRL-Faslpr mice, topical, multi-day UVR, 24 hours after final exposure) is recorded as “reduced”. For the same molecule, in assay [2] (setting [6]), the photosensitivity entry is “reduces” and the “skin-draining lymph node (B cell) responses” value is recorded as “reduction”. Further, in assay [2] (MRL/lpr lupus model, topical application, listed as Hb-EGF), the “skin-draining lymph node (B cell) responses” value was “reduces”. For the same molecule, in assay [3], the “UVR-induced apoptotic keratinocyte accumulation” value is recorded as “reduced” and the UVR-induced monocyte accumulation entry is “reduced”.

B2: EGF: EGFR-ligand cited as stimulating ADAM17 (protein, UniProt P01133 23-1207, looked up)
Pro-epidermal growth factor: PQHWSCPEGTLAGNGNSTCVGPAPFLIFSHGNSIFRIDTEGTNYEQLVVDAGVSVIMDFHYNEKRIYWVDLERQLLQRVFLNGSRQERVCNIEKNVSGMAINWINEEVIWSNQQEGIITVTDMKGNNSHILLSALKYPANVAVDPVERFIFWSSEVAGSLYRADLDGVGVKALLETSEKITAVSLDVLDKRLFWIQYNREGSNSLICSCDYDGGSVHISKHPTQHNLFAMSLFGDRIFYSTWKMKTIWIANKHTGKDMVRINLHSSFVPLGELKVVHPLAQPKAEDDTWEPEQKLCKLRKGNCSSTVCGQDLQSHLCMCAEGYALSRDRKYCEDVNECAFWNHGCTLGCKNTPGSYYCTCPVGFVLLPDGKRCHQLVSCPRNVSECSHDCVLTSEGPLCFCPEGSVLERDGKTCSGCSSPDNGGCSQLCVPLSPVSWECDCFPGYDLQLDEKSCAASGPQPFLLFANSQDIRHMHFDGTDYGTLLSQQMGMVYALDHDPVENKIYFAHTALKWIERANMDGSQRERLIEEGVDVPEGLAVDWIGRRFYWTDRGKSLIGRSDLNGKRSKIITKENISQPRGIAVHPMAKRLFWTDTGINPRIESSSLQGLGRLVIASSDLIWPSGITIDFLTDKLYWCDAKQSVIEMANLDGSKRRRLTQNDVGHPFAVAVFEDYVWFSDWAMPSVMRVNKRTGKDRVRLQGSMLKPSSLVVVHPLAKPGADPCLYQNGGCEHICKKRLGTAWCSCREGFMKASDGKTCLALDGHQLLAGGEVDLKNQVTPLDILSKTRVSEDNITESQHMLVAEIMVSDQDDCAPVGCSMYARCISEGEDATCQCLKGFAGDGKLCSDIDECEMGVPVCPPASSKCINTEGGYVCRCSEGYQGDGIHCLDIDECQLGEHSCGENASCTNTEGGYTCMCAGRLSEPGLICPDSTPPPHLREDDHHYSVRNSDSECPLSHDGYCLHDGVCMYIEALDKYACNCVVGYIGERCQYRDLKWWELRHAGHGQQQKVIVVAVCVVVLVMLLLLSLWGAHYYRTQKLLSKNPKNPYEESSRDVRSRRPADTEDGMSSCPQPWFVVIKEHQDLKNGGQPVAGEDGQAADGSMQPTSWRQEPQLCGMGTEQGCWIPVSSDKGSCPQVMERSFHMPSYGTQTLEGGVEKPHSLLSANPLWQQRALDPPHQMELTQ
modifications: Pro-epidermal growth factor
notes: EGFR-ligand cited as stimulating ADAM17
As for B2, the ADAM17 activation entry in assay [4] is recorded as “activated”.
